Laboratory results as given in patent publication US20140271635A1 (Novartis, published 2014).

T1: full length human CD19 expressed on mouse preB cell line 300.19 (300.19-hsCD19FL) (human, UniProt P15391 20-556)
T1 construct: whole, on cells; also called hCD19; 300.CD19
T1 sequence (looked up): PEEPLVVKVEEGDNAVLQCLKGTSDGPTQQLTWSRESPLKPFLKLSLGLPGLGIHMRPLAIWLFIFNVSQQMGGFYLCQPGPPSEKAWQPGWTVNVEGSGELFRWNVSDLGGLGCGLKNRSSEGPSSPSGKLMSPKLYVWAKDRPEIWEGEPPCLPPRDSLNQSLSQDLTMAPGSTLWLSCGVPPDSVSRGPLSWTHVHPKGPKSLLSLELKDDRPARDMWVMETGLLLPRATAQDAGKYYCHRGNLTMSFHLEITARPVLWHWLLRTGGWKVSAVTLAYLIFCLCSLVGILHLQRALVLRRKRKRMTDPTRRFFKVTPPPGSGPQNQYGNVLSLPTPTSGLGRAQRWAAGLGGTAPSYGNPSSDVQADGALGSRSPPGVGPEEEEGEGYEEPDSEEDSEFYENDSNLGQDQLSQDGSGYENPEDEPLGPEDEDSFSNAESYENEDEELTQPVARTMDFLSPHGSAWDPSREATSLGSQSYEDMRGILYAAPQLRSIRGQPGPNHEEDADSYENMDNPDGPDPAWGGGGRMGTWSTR

B1: 103104 CAR 3 - Soluble scFv (scFv)
scFv: QVQLQESGPGLVKPSETLSLTCTVSGVSLPDYGVSWIRQPPGKGLEWIGVIWGSETTYYSSSLKSRVTISKDNSKNQVSLKLSSVTAADTAVYYCAKHYYYGGSYAMDYWGQGTLVTVSSGGGGSGGGGSGGGGSEIVMTQSPATLSLSPGERATLSCRASQDISKYLNWYQQKPGQAPRLLIYHTSRLHSGIPARFSGSGSGTDYTLTISSLQPEDFAVYFCQQGNTLPYTFGQGTKLEIKHHHHHHHH
notes: Built here without the leader
B2: 103106 CAR4 - Soluble scFv (scFv)
scFv: QVQLQESGPGLVKPSETLSLTCTVSGVSLPDYGVSWIRQPPGKGLEWIGVIWGSETTYYQSSLKSRVTISKDNSKNQVSLKLSSVTAADTAVYYCAKHYYYGGSYAMDYWGQGTLVTVSSGGGGSGGGGSGGGGSEIVMTQSPATLSLSPGERATLSCRASQDISKYLNWYQQKPGQAPRLLIYHTSRLHSGIPARFSGSGSGTDYTLTISSLQPEDFAVYFCQQGNTLPYTFGQGTKLEIKHHHHHHHH
notes: Built here without the leader
B3: 103101 CAR1 Soluble scFv (scFv)
scFv: EIVMTQSPATLSLSPGERATLSCRASQDISKYLNWYQQKPGQAPRLLIYHTSRLHSGIPARFSGSGSGTDYTLTISSLQPEDFAVYFCQQGNTLPYTFGQGTKLEIKGGGGSGGGGSGGGGSQVQLQESGPGLVKPSETLSLTCTVSGVSLPDYGVSWIRQPPGKGLEWIGVIWGSETTYYSSSLKSRVTISKDNSKNQVSLKLSSVTAADTAVYYCAKHYYYGGSYAMDYWGQGTLVTVSSHHHHHHHH
notes: Built here without the leader
B4: 103102 CAR2 - Soluble scFv (scFv)
scFv: EIVMTQSPATLSLSPGERATLSCRASQDISKYLNWYQQKPGQAPRLLIYHTSRLHSGIPARFSGSGSGTDYTLTISSLQPEDFAVYFCQQGNTLPYTFGQGTKLEIKGGGGSGGGGSGGGGSQVQLQESGPGLVKPSETLSLTCTVSGVSLPDYGVSWIRQPPGKGLEWIGVIWGSETTYYQSSLKSRVTISKDNSKNQVSLKLSSVTAADTAVYYCAKHYYYGGSYAMDYWGQGTLVTVSSHHHHHHHH
notes: Built here without the leader
B5: 100796 CAR7 - Soluble scFv (scFv)
scFv: QVQLQESGPGLVKPSETLSLTCTVSGVSLPDYGVSWIRQPPGKGLEWIGVIWGSETTYYSSSLKSRVTISKDNSKNQVSLKLSSVTAADTAVYYCAKHYYYGGSYAMDYWGQGTLVTVSSGGGGSGGGGSGGGGSGGGGSEIVMTQSPATLSLSPGERATLSCRASQDISKYLNWYQQKPGQAPRLLIYHTSRLHSGIPARFSGSGSGTDYTLTISSLQPEDFAVYFCQQGNTLPYTFGQGTKLEIKHHHHHHHH
notes: Built here without the leader
B6: 100798 CAR8 - Soluble scFv (scFv)
scFv: QVQLQESGPGLVKPSETLSLTCTVSGVSLPDYGVSWIRQPPGKGLEWIGVIWGSETTYYQSSLKSRVTISKDNSKNQVSLKLSSVTAADTAVYYCAKHYYYGGSYAMDYWGQGTLVTVSSGGGGSGGGGSGGGGSGGGGSEIVMTQSPATLSLSPGERATLSCRASQDISKYLNWYQQKPGQAPRLLIYHTSRLHSGIPARFSGSGSGTDYTLTISSLQPEDFAVYFCQQGNTLPYTFGQGTKLEIKHHHHHHHH
notes: Built here without the leader
B7: 99789 CAR5 - Soluble scFv (scFv)
scFv: EIVMTQSPATLSLSPGERATLSCRASQDISKYLNWYQQKPGQAPRLLIYHTSRLHSGIPARFSGSGSGTDYTLTISSLQPEDFAVYFCQQGNTLPYTFGQGTKLEIKGGGGSGGGGSGGGGSGGGGSQVQLQESGPGLVKPSETLSLTCTVSGVSLPDYGVSWIRQPPGKGLEWIGVIWGSETTYYSSSLKSRVTISKDNSKNQVSLKLSSVTAADTAVYYCAKHYYYGGSYAMDYWGQGTLVTVSSHHHHHHHH
notes: Built here without the leader
B8: 99790 CAR6 - Soluble scFv (scFv)
scFv: EIVMTQSPATLSLSPGERATLSCRASQDISKYLNWYQQKPGQAPRLLIYHTSRLHSGIPARFSGSGSGTDYTLTISSLQPEDFAVYFCQQGNTLPYTFGQGTKLEIKGGGGSGGGGSGGGGSGGGGSQVQLQESGPGLVKPSETLSLTCTVSGVSLPDYGVSWIRQPPGKGLEWIGVIWGSETTYYQSSLKSRVTISKDNSKNQVSLKLSSVTAADTAVYYCAKHYYYGGSYAMDYWGQGTLVTVSSHHHHHHHH
notes: Built here without the leader

target: T1, full length human CD19 expressed on …; test: flow cytometry on mouse 300.19 cells expressing hCD19, His-tagged scFv
Procedure: Mouse cell line 300.CD19 were grown in RPMI 1640 with 0.5 mg/ml Zeocin. Around 5e5 cells/per well were transferred to the BD Falcon 96 well plate. The cells were spin down at 900 rpm (Sorval Legend XT centrifuge) for 3 minutes. The supernatant were removed. Anti-CD19 scFv protein samples were diluted in DPBS with 5% FBS. The samples were added into the wells, mixed well with the cells and incubated for 1 hour. The cells were washed twice in the DPBS with 5% FBS. The cells were incubated with antipoly His PE (R&D) for 1 hour, washed twice before FACS analysis (LSRII from BD Biosciences).

Binding result, binds:
B1
B2
B3
B4
B5
B6
B7
B8
